T1: CARD9 FL overexpressed in HEK 293T cells
T1 sequence (Q9H257 1-536, species assumed, looked up): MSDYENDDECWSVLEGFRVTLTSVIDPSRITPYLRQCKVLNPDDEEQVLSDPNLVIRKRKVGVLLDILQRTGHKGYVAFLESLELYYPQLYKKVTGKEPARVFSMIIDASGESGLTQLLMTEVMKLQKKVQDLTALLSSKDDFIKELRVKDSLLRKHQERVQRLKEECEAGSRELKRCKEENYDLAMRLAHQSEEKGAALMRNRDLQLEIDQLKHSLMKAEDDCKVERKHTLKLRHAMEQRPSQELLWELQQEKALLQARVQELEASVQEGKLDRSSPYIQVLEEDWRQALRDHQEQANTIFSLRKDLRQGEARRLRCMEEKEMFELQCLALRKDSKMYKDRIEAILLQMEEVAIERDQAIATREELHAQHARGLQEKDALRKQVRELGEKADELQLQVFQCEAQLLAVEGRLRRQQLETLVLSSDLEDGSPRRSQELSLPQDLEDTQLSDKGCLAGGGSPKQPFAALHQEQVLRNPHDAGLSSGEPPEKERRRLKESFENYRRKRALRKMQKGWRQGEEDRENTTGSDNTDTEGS

T2: CARD9 R101C overexpressed in HEK 293T cells
T2 sequence (Q9H257 1-536 with R101C, species assumed, looked up): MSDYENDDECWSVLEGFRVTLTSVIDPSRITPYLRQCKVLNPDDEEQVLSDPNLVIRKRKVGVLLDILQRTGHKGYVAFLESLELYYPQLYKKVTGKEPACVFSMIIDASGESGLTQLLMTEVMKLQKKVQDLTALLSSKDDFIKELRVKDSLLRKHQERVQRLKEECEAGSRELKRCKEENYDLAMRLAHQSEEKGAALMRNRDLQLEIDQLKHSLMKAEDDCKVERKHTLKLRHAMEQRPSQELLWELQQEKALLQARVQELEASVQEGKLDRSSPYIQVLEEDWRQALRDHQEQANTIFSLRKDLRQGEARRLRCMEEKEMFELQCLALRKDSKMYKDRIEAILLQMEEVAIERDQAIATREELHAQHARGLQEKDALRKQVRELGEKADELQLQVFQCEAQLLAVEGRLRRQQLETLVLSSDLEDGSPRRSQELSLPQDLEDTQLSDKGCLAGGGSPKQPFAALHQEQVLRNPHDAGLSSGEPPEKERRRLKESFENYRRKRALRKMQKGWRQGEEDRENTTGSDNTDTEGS

T3: CARD9 S104N overexpressed in HEK 293T cells
T3 sequence (Q9H257 1-536 with S104N, species assumed, looked up): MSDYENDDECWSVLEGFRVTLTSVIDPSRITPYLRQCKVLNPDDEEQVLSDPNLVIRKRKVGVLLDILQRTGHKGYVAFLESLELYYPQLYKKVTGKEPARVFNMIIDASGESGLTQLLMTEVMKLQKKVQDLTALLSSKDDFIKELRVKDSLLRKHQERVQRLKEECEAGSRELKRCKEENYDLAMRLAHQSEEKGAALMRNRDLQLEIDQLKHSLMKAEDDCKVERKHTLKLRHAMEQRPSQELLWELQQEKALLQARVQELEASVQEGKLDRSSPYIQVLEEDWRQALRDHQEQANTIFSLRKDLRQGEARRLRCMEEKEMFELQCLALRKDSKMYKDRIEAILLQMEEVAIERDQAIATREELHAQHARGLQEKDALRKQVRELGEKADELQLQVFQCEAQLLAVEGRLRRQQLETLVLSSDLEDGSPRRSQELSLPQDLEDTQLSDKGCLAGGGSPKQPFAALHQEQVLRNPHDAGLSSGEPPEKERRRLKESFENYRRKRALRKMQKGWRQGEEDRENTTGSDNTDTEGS

T4: CARD9 R101C (endogenous knock-in variant, in CARD9 R101C mouse BMDCs) (Mus musculus, UniProt A2AIV8 1-536)
T4 construct: CRISPR knock-in mouse; The protein stood in lysates of HKCA-stimulated BMDCs
T4 sequence: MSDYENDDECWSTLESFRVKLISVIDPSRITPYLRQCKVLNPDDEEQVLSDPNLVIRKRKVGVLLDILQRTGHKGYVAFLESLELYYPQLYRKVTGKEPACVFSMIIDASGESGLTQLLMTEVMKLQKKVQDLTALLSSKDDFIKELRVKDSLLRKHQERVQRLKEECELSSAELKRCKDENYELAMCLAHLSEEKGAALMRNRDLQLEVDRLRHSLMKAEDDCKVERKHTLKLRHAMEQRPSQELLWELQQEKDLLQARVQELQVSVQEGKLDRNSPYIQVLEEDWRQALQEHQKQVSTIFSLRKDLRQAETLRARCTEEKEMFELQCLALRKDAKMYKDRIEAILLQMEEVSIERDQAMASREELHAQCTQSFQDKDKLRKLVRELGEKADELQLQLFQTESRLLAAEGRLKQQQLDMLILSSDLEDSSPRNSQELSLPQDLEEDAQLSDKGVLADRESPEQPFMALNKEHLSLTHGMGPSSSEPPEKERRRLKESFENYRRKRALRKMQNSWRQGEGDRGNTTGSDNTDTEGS

T5: CARD9 (endogenous, in WT mouse BMDCs) (Mus musculus, UniProt A2AIV8 1-536)
T5 construct: Endogenous protein in lysates of HKCA-stimulated WT mouse BMDCs; also called WT CARD9
T5 sequence: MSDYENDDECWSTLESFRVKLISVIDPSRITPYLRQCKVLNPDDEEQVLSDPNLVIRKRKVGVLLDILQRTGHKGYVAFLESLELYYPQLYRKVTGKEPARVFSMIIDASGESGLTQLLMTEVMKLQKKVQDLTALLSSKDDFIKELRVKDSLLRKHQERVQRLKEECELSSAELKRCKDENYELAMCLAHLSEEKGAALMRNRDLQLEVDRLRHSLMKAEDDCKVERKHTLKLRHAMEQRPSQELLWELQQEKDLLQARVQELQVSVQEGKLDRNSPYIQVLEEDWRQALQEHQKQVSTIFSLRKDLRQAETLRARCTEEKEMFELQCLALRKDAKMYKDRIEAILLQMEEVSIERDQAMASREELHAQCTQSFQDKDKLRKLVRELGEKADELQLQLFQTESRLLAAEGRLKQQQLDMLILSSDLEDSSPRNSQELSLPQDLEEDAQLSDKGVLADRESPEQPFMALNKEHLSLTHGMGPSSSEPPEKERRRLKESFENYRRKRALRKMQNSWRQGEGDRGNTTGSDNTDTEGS


What was measured:
[1] = system: T1, CARD9 FL overexpressed in HEK 293T cells
[2] = system: T2, CARD9 R101C overexpressed in HEK 293T cells
[3] = system: T3, CARD9 S104N overexpressed in HEK 293T cells
[4] = biological target: T4, CARD9 R101C (endogenous knock-in …); test: Bcl10 immunoprecipitation from HKCA-stimulated BMDCs, western blot
Method: (§1) Lysate was incubated for 30 min and centrifuged at 2000 rpm for 10 min at 4° C. 50 μl of the supernatant was collected as whole cell lysate (WCL) fraction. Remaining supernatant was collected and incubated overnight with 10 al/sample of CARD9 antibody (Cell Signaling Technology #12283S) at 4° C. while rotating. The next day, 50 μl of Dynabeads Protein G beads (Life Technologies #10004D) were added and incubated for 1 h rotating at 4° C. Immunoprecipitates were washed 3× with standard lysis buffer and resuspended in 25 μl of 2× Laemmli buffer (BioRad #1610737) supplemented with 5% R-mercaptoethanol followed by boiling for 10 min at 75° C. For Bcl10 IP to detect CBM complex formation, cell pellets were resuspended in lysis buffer (PBS, 0.5% NP-40) supplemented with 1× Halt Protease & Phosphatase Inhibitor Single-Use Cocktail and Pierce Universal Nuclease and kept on ice for 10 min. Lysate was centrifuged for 10 min at 2000 rpm at 4° C. 50 μl of the supernatant was collected as whole cell lysate (WCL) fraction. Remaining supernatant was incubated overnight with 200 al/sample of Bcl10 antibody (Santa Cruz Biotechnology #sc-5273) at 4° C. rotating. The next day, 50 μl of Dynabeads Protein G beads were added and incubated for 1 h rotating at 4° C. […]

[5] = biological target: T5, CARD9 (endogenous, in WT mouse BMDCs); test: Bcl10 immunoprecipitation from HKCA-stimulated BMDCs, western blot for CARD9
Method: as §1

| binding result [4] | binding result [5] | Molecule | in vitro phosphorylation assay (western blot) [1] | in vitro phosphorylation assay (western blot) [2] | in vitro phosphorylation assay (western blot) [3] |
| --- | --- | --- | --- | --- | --- |
| – | – | purified PKCδ (Promega PKCδ Kinase Enzyme System #V3401) | PKCd does indeed phosphorylate S104 | this phosphorylation requires an intact RXXS motif in the linker domain | this phosphorylation requires an intact RXXS motif in the linker domain |
| no binding | binds | Bcl10 (endogenous, in mouse BMDCs) (other, UniProt Q9Z0H7 1-233, looked up) MEAPAPSLTEEDLTEVKKDALENLRVYLCEKIIAERHFDHLRAKKILSREDTEEISCRTSSRKRAGKLLDYLQENPRGLDTLVESIRREKTQSFLIQKITDEVLKLRNIKLEHLKGLKCSSCEPFAAGATNNLSRCNSDESNLSEKQRASTVMYHPEGESSTAPFFSMASSLNLPVLEVGRTENSSFSSATLPRPGDPGAPPLPPDLRLEEGGSCGNSSEMFLPLRSRALSRQ | – | – | – |

Reference: US20260158139A1, “CARD9 VARIANT POLYPEPTIDE AND ANTIBODIES DIRECTED THERETO” (The Broad Institute, Inc., priority 2023, published 2026)
